Test results taken from PMC7026663 (Nucleic Acids Research, 2019).

Assays:
[1] = molecular target: H2A/H2B dimer (UniProt P06897;P02281); experiment: ITC
[2] = molecular target: H3/H4 tetramer (UniProt P84233;P62799); experiment: ITC

stoichiometry N [1]: 1 | stoichiometry N [2]: 1
B1: AtFKBP53 NTD (residues 1–112) (domain or fragment)
chain: MGFWGLEVKPGKPQAYNPKNEQGKIHVTQATLGTGLSKEKSVIQCSIGDKAPIALCSLLPNKIECCPLNLEFDDDDEPVEFTVTGDRSIHLSGFLEYYQDDEDDYEHDEDDS
